Biological target: LRIM1 (An. gambiae)
Assay: non-reducing SDS-PAGE western blot

stoichiometry N: 2
Substance: LRIM1 (natural protein)

Source: publication PMC4073527
